The values that follow come from patent US20140017235A1 (published 2014).

The test deals with T1, human NGF (human, UniProt P01138 122-241).
T1 construct: also called hNGF; nerve growth factor
In words: BIAcore SPR screening, Fab over immobilized human NGF. Here is the method: Affinities of anti-NGF Fabs and monoclonal antibodies were determined using the BIAcore3000™ surface plasmon resonance (SPR) system (BIAcore, INC, Piscaway N.J.). CM5 chips were activated with N-ethyl-N′-(3-dimethylaminopropyl)-carbodiinide hydrochloride (EDC) and N-hydroxysuccinimide (NHS) according to the supplier's instructions. Human NGF was diluted into 10 mM sodium acetate pH 4.0 and injected over the activated chip at a concentration of 0.005 mg/mL. Using variable flow time across the individual chip channels, two ranges of antigen density were achieved: 100-200 response units (RU) for detailed kinetic studies and 500-600 RU for screening assays. The chip was blocked with ethanolamine. […] HBS-EP buffer (0.01M HEPES, pH 7.4, 0.15 NaCl, 3 mM EDTA, 0.005% Surfactant […]) was used as running buffer for all the BIAcore assays.

T1 sequence (P01138 122-241 limits assumed): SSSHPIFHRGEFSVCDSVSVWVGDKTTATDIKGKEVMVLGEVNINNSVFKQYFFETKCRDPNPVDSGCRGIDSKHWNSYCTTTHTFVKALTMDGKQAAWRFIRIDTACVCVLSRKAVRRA

B1: H19-L129 (Fab, V domains shown)
VH: QVQLQESGPGLVKPSETLSLTCTVSGFSLIGYDLNWIRQPPGKGLEWIGIIWGDGTTDYNSAVKSRVTISKDTSKNQFSLKLSSVTAADTAVYYCARGGYYYGTSYYFDYWGQGTLVTVS
VL: DIQMTQSPSSLSASVGDRVTITCRASQSISNNLNWYQQKPGKAPKLLIYYTSRFHSGVPSRFSGSGSGTDFTFTISSLQPEDIATYYCQQSKTLPYTFGQGTKLEIKR
notes: E. coli Fab with human Ckappa and human IgG2a CH1; also called H19-L129 Fab; Fab H19-L129
Consider B1, for which the koff (as a rule, a measure of how fast the partners let go of each other) stood at 0.0001 s⁻¹.
